# In patent publication US12018084B2, “Anti-CXCR2 antibodies and uses thereof” (Cephalon LLC, priority 2018, dated 2024):
# Where a chain is given by its changes, count along the chain named. Like-named read-outs stand apart in the source and are kept apart here.
# T1: Human CXCR2 (Homo sapiens, UniProt P25025)
# T1 sequence (P25025 1-360): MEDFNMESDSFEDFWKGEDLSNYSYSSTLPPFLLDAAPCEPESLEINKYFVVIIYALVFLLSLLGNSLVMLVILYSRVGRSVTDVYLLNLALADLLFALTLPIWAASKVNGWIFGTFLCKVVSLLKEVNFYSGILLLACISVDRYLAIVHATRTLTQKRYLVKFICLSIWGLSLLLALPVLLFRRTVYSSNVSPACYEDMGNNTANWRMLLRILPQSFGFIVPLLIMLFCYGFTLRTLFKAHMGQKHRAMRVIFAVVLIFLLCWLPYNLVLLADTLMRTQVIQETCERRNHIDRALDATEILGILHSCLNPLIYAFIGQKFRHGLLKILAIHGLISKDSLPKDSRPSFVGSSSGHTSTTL
# T2: native human CXCR2 expressed by human neutrophils (Homo sapiens, UniProt P25025)
# T2 construct: native human CXCR2 expressed by human neutrophils; endogenous in cells; host or cells: human peripheral blood cells (buffy coat, PBMC-enriched fractions, anticoagulated blood): neutrophils, monocytes
# T2 sequence (P25025 1-360): T1 sequence (P25025 1-360)
# B1: BKO-4A8: parental anti-CXCR2 antibody, VH SEQ ID NO: 17, VL SEQ ID NO: 18 (antibody, V domains shown)
# VH: EVQLLESGGGLVQPGGSLRLSCAASGFTFSSSTMSWVRQAPGKGLEWVSAISGRGRNTYYADSVKGRFTISRDNSRNTLYLQMNSLRAEDTAVYYCAIQMGYWGQGILVTVSS
# VL: QSALTQPPSASGSPGQSVTISCIGTSSDVGGYNYVSWYQQHPDKAPKLMIYEVNKRPSGVPDRFSGSKSGNTASLTVSGLQAEDEADYYCSSYAGNNNFGVFGGGTKLTVL
# modifications: BKO_4A8_VH; BKO_4A8_VL
# B2: 101c: VH SEQ ID NO: 108, VL SEQ ID NO: 110; renamed BKO-4A8-101c (antibody, V domains shown)
# VH: B1 VH with M34Q, A40P, N57S, R76K, M100A
# VL: B1 VL with D43G, N54S, N96S
# modifications: 4A8 VH Variant 101 M34Q_A40P_N56S_R75K_M96A; 4A8 VL variant c D41G_N52S_N94S
# notes: renamed BKO-4A8-101c
# Key:
# Human CXCR2 = target: T1, Human CXCR2; test: Tango CXCR2-bla U2OS cell-based β-arrestin recruitment assay; design: The beta-arrestin/TEV protease fusion and the beta-lactamase reporter are separate parts of the cell line
# From the text: Cells were thawed, propagated, cultured and frozen according to the manufacturer's directions.
# Preparation of Tango™ CXCR2-bla U2OS cells for use in cell-based assays: The manufacturer's protocol was altered to make use of 96-well plates instead of 384-well plates. Briefly, dividing cells were harvested one day prior to use. Cells were harvested and resuspended in assay medium (100% FreeStyle™ Expression Medium; Life Technologies; Cat #12338-018) at a viable cell density of 312,500 cells/mL. 128 μL of cell suspension was added per well in 96-well black-walled, clear bottom tissue culture-treated plates. Cells were incubated for 16-20 hrs at 37° C. in an atmosphere of 5% CO2 prior to use in assays.
# Tango™ assay procedure: Assays were set up and run as described in the manufacturer's protocol. For antagonist assays, agonists were used at concentrations in the EC50-EC80 range. Assays were read using a FlexStation® 3 (Molecular Devices) fluorescence plate reader configured with the parameters given in Table 4. The blue/green emission ratio for each well was calculated by dividing the blue emission values by the green emission values. All inhibition curves were fitted using a four-parameter dose-response using GraphPad Prism™ (Version 7.01).
# The Human CXCR2 Tango™ cell line was used to assess the ability of antibody BKO-4A8-101c to inhibit β-arrestin recruitment to agonist-activated CXCR2. All human ELR+ chemokine CXCR2 ligands were tested in antagonist dose response assays using calculated EC50 values of agonist.
# The commercially available reporter cell line Tango™ CXCR2-bla U2OS (ThermoFisher Scientific) was used to assess the ability of the anti-CXCR2 antibodies to inhibit β-arrestin recruitment to agonist-activated CXCR2. Agonists were provided at their assay EC50 concentration for antagonist assays.
# [1] = target: T2, native human CXCR2 expressed by human neutrophils; test: Flow cytometry binding to human blood cells (neutrophils, monocytes, PBMC preparations)
# Description: Whole human buffy coat, PBMC enriched fractions prepared from human peripheral blood buffy coat or cynomolgus monkey whole blood was used for analysis of antibody binding activity by flow cytometry. Briefly, blood was untreated or diluted 1:1 in sterile filtered room temperature phosphate-buffered saline (PBS). 30 mL samples were layered over 15 mL Lymphoprep™ (Stem Cell Technologies, cat #07851). Peripheral blood mononuclear cells (PBMC) were enriched by room temperature centrifugation at 700 g for 30 minutes with no braking. The PBMC layer was isolated and cells washed in PBS containing 2 mM EDTA with low speed centrifugation at 200 g, to remove platelet contamination. Whole blood or PBMC enriched cell fractions were resuspended in red blood cell lysing solution (BioLegend, 420301). Viable cell counts were determined and cells resuspended at 1×10^7 cells per mL in FACS buffer (1×PBS+0.5% (w/v) BSA+2 mM EDTA pH 7.2).
# Flow cytometry binding assays using whole blood or PBMC enriched preparations: Binding assays to detect CXCR2 on blood neutrophil populations using test antibodies were performed essentially as described for assays using transiently transfected Expi293F™ cells. Binding of antibodies to human CXCR2 on the surface of the neutrophils was measured using anti-CXCR2 antibody directly conjugated to the fluorophore allophycocyanin (APC). Matched isotype control antibodies were included for comparison. Cells were incubated with lineage specific antibodies and 2 μg/ml of APC conjugated anti-CXCR2 antibody or isotype control prepared in ice cold 3% BSA/PBS for a minimum of 30 minutes at 4° C. The commercial anti-CXCR2 antibody (clone 48331 (R&D Systems FAB331A)) was used as a positive control. Neutrophil populations were identified by characteristic granularity and size, and positive binding of commercially available antibodies against CD10 (Biolegend, clone H110a, catalogue number 312204). Cells were washed and fixed (BioLegend Fixation buffer, 420801) prior to analysis. The level of fluorescence on the cell surface was measured by flow cytometry. Using this method, test anti-CXCR2 antibodies were detected binding neutrophils from both human and cynomolgus monkey.
# To further characterize the anti-CXCR2 antibody BKO-4A8-101c, the ability to bind CXCR2 on neutrophils was tested on anticoagulated human blood. Binding was measured using BKO-4A8-101c directly conjugated to fluorophore APC. Matched isotype control antibodies conjugated to APC were included for comparison. Cells were incubated with lineage-specific antibodies and 2 μg/mL of APC conjugated anti-CXCR2 antibody or isotype control. The level of fluorescence on the cell surface was measured by flow cytometry. […]
Molecule,"potency of inhibition of CXCL1-mediated activation of CXCR2, ranking (Human CXCR2; agonist CXCL1, BKO-4A8, BKO-8G3_b, BKO-9C3_a compared)","IC50 (Human CXCR2; agonist CXCL1, combinatorial variants, read-out: CXCL1 IC50) [nM]","IC50 (Human CXCR2; agonist CXCL1, point variants, read-out: Tango Assay IC50 (nM) CXCL1) [nM]","IC50 (Human CXCR2; read-out: CXCL8 IC50, agonist CXCL8, combinatorial variants) [nM]","IC50 (Human CXCR2; read-out: Tango Assay IC50 (nM) CXCL8, agonist CXCL8, point variants) [nM]","binding to native human CXCR2 on human PBMCs / neutrophils ([1]; FIG. 2, MFI)","fold more potent than comparator CXCR2 antagonist antibodies or small molecules (Human CXCR2; CXCL1- or CXCL5-mediated β-arrestin activation, based on IC50 values)","CXCL1 Maximal Inhibition % (Human CXCR2; CXCL1 at EC50, comparison with comparators) [%]",potency compared to the parental antibody (Human CXCR2; CXCL1 or CXCL8 as agonist),"CXCL5 Maximal Inhibition % (Human CXCR2; CXCL5 at EC50, comparison with comparators) [%]",partial inhibition of CXCL8-induced β-arrestin recruitment (range) (Human CXCR2; CXCL8),"CXCL8 Maximal Inhibition % (Human CXCR2; CXCL8 at EC50, comparison with comparators) [%]",Maximal Inhibition % Mean (Human CXCR2; Hu CXCL1) [%],Maximal Inhibition % Mean (Human CXCR2; Hu CXCL2) [%],Maximal Inhibition % Mean (Human CXCR2; Hu CXCL3) [%],Maximal Inhibition % Mean (Human CXCR2; Hu CXCL5) [%],Maximal Inhibition % Mean (Human CXCR2; Hu CXCL6) [%],Maximal Inhibition % Mean (Human CXCR2; Hu CXCL7) [%],Maximal Inhibition % Mean (Human CXCR2; Hu CXCL8) [%],"binding to neutrophils and monocytes from human blood ([1]; APC conjugate, 2 μg/mL)"
B1,consistently the most potent,94,0.177,0.66,0.112,high binding activity,,,,,,,,,,,,,,
B2,,,,,,,2- to 39 fold,97,improved potency,98,70-80%,78,98,100,96,98,98,76,78,bound neutrophils (FIG. 12A) and monocytes (FIG. 12B)
